Laboratory results from article doi:10.1101/2021.04.26.441501 (bioRxiv, 2021).

Molecular target: SARS-CoV-2 RBD (residues 319-514) with C-terminal hexahistidine tag (Severe acute respiratory syndrome …, UniProt P0DTC2)
Assay: ELISA

B1: SARS2-38 (murine IgG1 mAb) (antibody, V domains shown)
VH: QVQLKESGPGLVAPSQSLSITCTVSGFSLTRYGVHWVRQPPGKGLEWLGVIWADGSTYYNSALMSRLSISKDNSKSQVFLNMNSLQTDDTAKYYCARDGRGYDDYWGQGTTLTVSS
VL: QIVLTQSPAIMSASPGEKVTMTCSASSTVSFIYWYQQKPGSSPRLLIYDTSNPASGVPVRFSGSGCGTSYYLTISRMEAEDAATYYCQQWNTYPLTFGAGTKLELK
Q: Does B1 bind?
A: binds
